PMC2814137, “Crystal Structural and Functional Analysis of the Putative Dipeptidase from Pyrococcus horikoshii OT3” (Journal of Biophysics, 2009)

How the values were obtained:
[1] = molecular target: the molecule itself; assay: AUC; sedimentation equilibrium, 20°C, 13 K rpm, three protein concentrations between 0.93 and 0.31 mg/mL, 20 mM Tris pH 8.0, 100 mM NaCl; monomer/dimer
[2] = substrate: CC(C)[C@H](N)C(=O)N1CCC[C@H]1C(=O)O; assay: colorimetric ninhydrin prolidase assay; format: biochemical, Pyrococcus horikoshii; conditions: 1.2 mM CoCl2, 50 mM MOPS pH 7.0, 100°C, hydrochloride salt

B1: putative dipeptidase (Phdpd) from Pyrococcus horikoshii OT3 (enzyme, UniProt O58691 1-356, looked up)
chain: MRLEKFIHLLGERGFDGALISPGTNLYYLTGLRLHEVGERLAILAVSAEGDYRFLAPSLYENVVNNFPATFWHDGENPYAKLREILEELGISKGRILIEDTMRADWLIGIMKLGKFTFQPLSSLIKELRMIKDKEEVKMMEHASRIADKVFEEILTWDLIGMKERELALKIELLIRELSDGIAFEPIVASGENAANPHHEPGERKIRKGDIIILDYGARWKGYCSDITRTIGLGELDERLVKIYEVVKDAQESAFKAVREGIKAKDVDSRAREVISKAGYGEYFIHRTGHGLGLDVHEEPYIGPDGEVILKNGMTFTIEPGIYVPGLGGVRIEDDIVVDEGKGRRLTKAERELIIL
notes: putative dipeptidase / X-Pro dipeptidase (prolidase), Project ID PH0974, Pyrococcus horikoshii OT3; No tag is mentioned; the plasmid was made by the 'super-rare-cutter system' (manuscript in preparation); A selenomethionine-labelled crystal was used for MAD phasing only; also called PH0974; X-Pro dipeptidase (prolidase) of Project ID PH0974; source: E. coli BL21-CodonPlus (DE3)-RIL, purified …
[1]
  stoichiometry N: 2
[2]
  Km: 5.0 mM
  kcat: 541 s⁻¹
